# According to publication PMC10432850, “NME3 binds to phosphatidic acid and mediates PLD6-induced mitochondrial tethering” (The Journal of Cell Biology, 2023):
# B1: NME3^ΔN-His (domain or fragment, human, UniProt Q13232 18-169, looked up)
# chain: TGAHERTFLAVKPDGVQRRLVGEIVRRFERKGFKLVALKLVQASEELLREHYAELRERPFYGRLVKYMASGPVVAMVWQGLDVVRTSRALIGATNPADAPPGTIRGDFCIEVGKNLIHGSDSVESARREIALWFRADELLCWEDSAGHWLYE
# notes: NME3 (nucleoside diphosphate kinase 3), human, lacking the N-terminal 17 amino acids (N17); also called N17 truncated NME3; source: E. coli BL21, purified (HisPur Ni-NTA resin, dialysed); not shown: His, C-terminal, kept
# B2: NME3^WT-His (natural protein, human, UniProt Q13232 1-169, looked up)
# chain: MICLVLTIFANLFPAACTGAHERTFLAVKPDGVQRRLVGEIVRRFERKGFKLVALKLVQASEELLREHYAELRERPFYGRLVKYMASGPVVAMVWQGLDVVRTSRALIGATNPADAPPGTIRGDFCIEVGKNLIHGSDSVESARREIALWFRADELLCWEDSAGHWLYE
# notes: NME3 (nucleoside diphosphate kinase 3), human, wild type; also called NME3-His; source: E. coli BL21, purified (HisPur Ni-NTA resin, dialysed); not shown: His, C-terminal, kept
# Biological target: the molecule itself
# Experiment: cross-linking; 4 uM purified protein cross-linked with glutaraldehyde, detected by Western blotting
Protein,stoichiometry N,binding result
B1,6,–
B2,–,binds
